The values below come from patent US20060084085A1, “Methods and compositions for modulating Bax-mediated apoptosis” (priority 2004, published 2006).

For assay [1], the system named is Ku70 acetylation. Description: Ku70 acetylation level in cells (Ku70 IP, panAc-K antibody blot). It is filed as cell-based, human. As to conditions: HeLa cells, NAM 5 mM, TSA 1 μM, normalized to DMSO treatment.
Description: Briefly, HeLa cells were grown under one of the following conditions: 0.10/6 DMSO, 1 μM TSA, 5 mM nicotinamide (NAM), or TSA and NAM. Ku70 was immunoprecipitated from whole-cell extracts and probed for lysine acetylation using a panAc-Lys Ab.
To determine which class of deacetylase targets Ku70 in vivo, cells were treated with either TSA or NAM and the acetylation level of Ku70 was detected using the panAc-K antibody.
For immunoprecipitation (IP) of Ku70, 1 mg of protein was precleared by incubation with protein A/G Sepharose beads (Santa Cruz). The supernatant was incubated with agarose-conjugated goat polyclonal anti-Ku70 antibody (Santa Cruz), followed by three washes in 1% triton in PBS. The immunocomplex was separated by SDS-PAGE and proteins were detected with a rabbit polyclonal anti-pan-acetyl-lysine (panAc-K) antibody raised against acetylated rabbit's serum.
Assay [2] relates to 293T cells. Kind of assay: Bax-mediated apoptosis in 293T cells transfected with YFP-Bax and Ku70 (apoptotic nuclei scored). As to conditions: for effect on the ability of Ku70 to suppress Bax-mediated apoptosis: 293T cells cotransfected with YFP-Bax and Ku70, apoptotic nuclei scored 24 hr posttransfection. Format: cell-based, human.
Assay [3] deals with T1, PCAF (Homo sapiens, UniProt Q92831).
T1 construct: 100 ng of recombinant HAT domains of p300, PCAF, or CBP
Kind of assay: In vitro acetylation assay of Ku70 peptides with PCAF HAT domain and 3H-acetyl-CoA. As to conditions: for acetylation of peptide by PCAF in vitro: HAT domain of PCAF, 3H-acetyl-CoA, autoradiography; for Relative Intensity of Acetylation: Ku70 peptides acetylated by PCAF in vitro, band intensity normalized to peptide 3. More on the design: key to Relative Intensity of Acetylation: +: Band intensity was measured using NIH ImageJ software and normalized to the intensity of peptide 3.; ++: Band intensity was measured using NIH ImageJ software and normalized to the intensity of peptide 3.; +++: Band intensity was measured using NIH ImageJ software and normalized to the intensity of peptide 3.; +++++: Band intensity was measured using NIH ImageJ software and normalized to the intensity of peptide 3. Format: biochemical. The method, then: FIG. 2B is a schematic representation of the synthetic peptide library spanning the entire length of Ku70. Each peptide was incubated with PCAF and 3H-acetyl-CoA and analyzed as in FIG. 2A.
(§1) FIG. 2C is a series of photographs showing acetylation peptides 16 and 29 as resolved by SDS-PAGE (PCAF reaction, left panel; CBP reaction, right panel). The acetylated domain of p53 (aa 315-325) served as a positive control for acetylation.
(§2) FIG. 2D is a photograph showing acetylation results of a series of scanning synthetic peptides of peptide 29. These scanning synthetic peptides were synthesized, with three out of the four lysines (K) substituted for arginine (R), a residue that cannot be acetylated. Peptides were incubated in acetylation reactions with PCAF or CBP and resolved by SDS-PAGE as above.
(§3) Due to the strong interaction between Ku70 and CBP and the efficient acetylation of Ku70 in vitro, we sought to define the regions of Ku70 that are targeted for acetylation. A library of 31 peptides was synthesized to cover the entire Ku70 sequence (FIG. 2B). Each of these peptides was incubated in an acetylation reaction as above, with either the HAT domain of PCAF or CBP. Again, a p53 peptide served as a positive control. […] Peptide 29 ([…]541-562), which contains four lysines (K542, K544, K553, and K556), is located within the C-terminal flexible linker region that we had previously identified as a potential target for acetylation (see FIG. 1 B).
(§4) To determine which lysines in peptide 29 were being acetylated in the reaction, a series of substitutions were made in which three out of the four lysines were replaced with arginine, a residue that cannot be acetylated. Each peptide was then incubated with either PCAF or CBP and analyzed by autoradiography as above.
(§5) Protein acetyltransferase assays were performed in 30 μl of reaction buffer containing 50 mM HEPES (pH 8.0), 10% glycerol, 1 mM DTT, 1 mM PMSF, 10 mM Na-butyrate, 1 μL (3H]-acetyl-CoA, 1 μg recombinant Ku70/80 complex or Ku70 peptide, and 100 ng of recombinant HAT domains of p300, PCAF, or CBP. Reactions were incubated at 30° C. for 1 hr and separated by SDS-PAGE (10%), stained with Coomassie blue, treated with EN^3HANCE autoradiography enhancer (NEN), dried, and exposed to film for 3-7 days. p53 peptides used as positive controls were p53315-3235 and p53377-389.

Assay [4] addresses T2, CBP (Homo sapiens, UniProt Q92793).
T2 construct: 100 ng of recombinant HAT domains of p300, PCAF, or CBP
Description: In vitro acetylation assay of Ku70 peptides with CBP HAT domain and 3H-acetyl-CoA. Format: biochemical. As to conditions: autoradiography.
Source text: as §1, §2, §3, §4, §5

T2 sequence (Q92793 1323-1700 limits assumed): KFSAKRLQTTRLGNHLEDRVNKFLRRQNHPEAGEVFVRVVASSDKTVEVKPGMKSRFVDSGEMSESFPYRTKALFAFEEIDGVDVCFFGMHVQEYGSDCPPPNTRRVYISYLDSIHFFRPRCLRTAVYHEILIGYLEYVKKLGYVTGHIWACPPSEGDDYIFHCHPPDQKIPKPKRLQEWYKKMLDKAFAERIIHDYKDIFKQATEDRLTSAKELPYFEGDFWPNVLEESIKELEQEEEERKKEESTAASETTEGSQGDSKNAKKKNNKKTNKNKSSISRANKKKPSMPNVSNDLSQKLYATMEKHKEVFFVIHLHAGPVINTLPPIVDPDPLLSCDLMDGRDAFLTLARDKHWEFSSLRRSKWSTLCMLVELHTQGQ
T1 sequence (Q92831 503-651 limits assumed): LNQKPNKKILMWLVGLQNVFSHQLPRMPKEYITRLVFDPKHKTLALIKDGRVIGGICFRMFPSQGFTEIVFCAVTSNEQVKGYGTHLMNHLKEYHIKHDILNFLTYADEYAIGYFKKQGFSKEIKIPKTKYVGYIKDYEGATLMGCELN

With `NC(=O)c1cccnc1` [NAM, nicotinamide], the “increase in total acetylation level of Ku70” value in assay [1] turned out to be 1.8 fold. Moreover, in assay [2], the “effect on the ability of Ku70 to suppress Bax-mediated apoptosis” value was “abrogated the ability of Ku70 to suppress apoptosis”.

With `CC(/C=C/C(=O)NO)=C\[C@@H](C)C(=O)c1ccc(N(C)C)cc1` [TSA, trichostatin A], the “increase in total acetylation level of Ku70” value in assay [1] was 2.4 fold. The “effect on the ability of Ku70 to suppress Bax-mediated apoptosis” value in assay [2] is listed as “apoptosis suppression was completely blocked”.

On to `Oc1ccc(/C=C/c2cc(O)cc(O)c2)cc1` [resveratrol, 3,5,4′-Trihydroxy-trans-stilbene], for which, in assay [2] (293T cells, YFP-Bax and Ku70, resveratrol 0, 50 or 100 nM added 12 hrs after transfection, scored 24 hrs post-transfection), the “suppression of Bax-mediated apoptosis” value is reported as “dose-dependent suppression of Bax-mediated apoptosis”.

For the compound “ASKAMFESQSEDELT [Peptide 3, Ku70 peptide, amino acids 44-58]”, in assay [3], the “acetylation of peptide by PCAF in vitro” value is reported as “acetylated by PCAF” and the “Relative Intensity of Acetylation” value is given as “+”.

As to “KRRR: peptide 29 variant retaining K542, the other three lysines replaced with arginine (TKRRHDNEGSGSRRPRVEYSEE)”, in assay [3], the “acetylation of peptide by PCAF in vitro” value was “acetylated to almost the same extent as the original peptide 29”. Moreover, in assay [4], the “acetylation of peptide by CBP in vitro” value is recorded as “acetylated to almost the same extent as the original peptide 29”.

On to “LLLPSDTKRSQIY [Peptide 15, Ku70 peptide, amino acids 310-322]”, for which, in assay [3], the “acetylation of peptide by PCAF in vitro” value is “acetylated by PCAF” and the “Relative Intensity of Acetylation” value is recorded as “+++”.

Consider “RQIILEKEETEELKRFD [Peptide 16, Ku70 peptide, amino acids 325-341]”, for which, in assay [3], the “acetylation of peptide by PCAF in vitro” value is listed as “strongly acetylated” and the “Relative Intensity of Acetylation” value is “+++”. For the same compound, the “acetylation of peptide by CBP in vitro” value in assay [4] is on record as “strongly acetylated”.

Turning to “RRKR: peptide 29 variant retaining K553, the other three lysines replaced with arginine (TRRRHDNEGSGSKRPRVEYSEE)”, the “acetylation of peptide by PCAF in vitro” value in assay [3] is listed as “weakly acetylated”. In addition, the “acetylation of peptide by CBP in vitro” value in assay [4] is “weakly acetylated”.

On to “TKRKHDNEGSGSKRPKVEYSEE [Peptide 29, Ku70 peptide, amino acids 541-562]”, for which, in assay [3], the “acetylation of peptide by PCAF in vitro” value was “strongly acetylated” and the “Relative Intensity of Acetylation” value was “+++++”. Moreover, the “acetylation of peptide by CBP in vitro” value in assay [4] is listed as “strongly acetylated”.

With “VQFKMSHKRIMLFTNED [Peptide 8, Ku70 peptide, amino acids 157-173]”, in assay [3], the “acetylation of peptide by PCAF in vitro” value is given as “acetylated by PCAF” and the “Relative Intensity of Acetylation” value is “++”.
